The values below come from patent publication US20030138859A1, “Assay kits and methods for immune complex-mediate activation involving shed antigens” (BioCrystal, Ltd., priority 1999, published 2003).

A value given as a limit tells only on which side of the number the result lay.

For assay [1], the system named is mucin-secreting human tumor cell line T-47D. Kind of assay: In vitro tumor cell invasion assay through matrix (Boyden chamber) with stromal cells. The assay is classed as cell-based. The following applies: anti-sTn IgG1 mAb.
Description: To illustrate this embodiment, granulocytes (polymorphonuclear cells) were harvested by positive selection from peripheral blood, and macrophages were harvested by peritoneal wash, from C3H-SCID beige mice in order to avoid contaminating mouse NK cells, natural Abs, or any immune recognition by mouse T or B lymphocytes. In this in vitro tumor cell invasion assay, used were mucin-secreting human tumor cell line T-47D, a Boyden chamber, and a commercially available basement membrane matrix preparation (“matrix”) which solidifies into a semisolid matrix. In this assay, tested was the ability of tumor cells (2×10^4 cells) to migrate through the matrix (layered into a 6.5 mm well insert containing a polycarbonate membrane having a 3.0 μm pore size) in the following conditions: matrix alone; matrix containing stromal cells (2×10^5 cells, granulocytes and macrophages combined); matrix in the presence of anti-shed tumor antigen antibody (anti-sTn mAb; IgG1; 0.06 μg); matrix containing stromal cells in the presence of anti-sTn mAb (0.06 μg); and matrix containing stromal cells in the presence of Fab fragments (0.06 μg) of the anti-sTn mAb. […] Invasion was measured by counting the number of tumor cells per well which migrated to the bottom of the chamber after 48 to 72 hours. […]
For assay [2], the target named is murine FcγRI on murine cells (Met 129, B16F10, granulocytes, peritoneal macrophages, MH-S macrophages) (mouse) (UniProt P26151). As to the kind of experiment: cell-based or functional assay.
Sequence of murine FcγRI on murine cells (Met 129, B16F10, granulocytes, peritoneal macrophages, MH-S macrophages) (mouse) (P26151 25-404): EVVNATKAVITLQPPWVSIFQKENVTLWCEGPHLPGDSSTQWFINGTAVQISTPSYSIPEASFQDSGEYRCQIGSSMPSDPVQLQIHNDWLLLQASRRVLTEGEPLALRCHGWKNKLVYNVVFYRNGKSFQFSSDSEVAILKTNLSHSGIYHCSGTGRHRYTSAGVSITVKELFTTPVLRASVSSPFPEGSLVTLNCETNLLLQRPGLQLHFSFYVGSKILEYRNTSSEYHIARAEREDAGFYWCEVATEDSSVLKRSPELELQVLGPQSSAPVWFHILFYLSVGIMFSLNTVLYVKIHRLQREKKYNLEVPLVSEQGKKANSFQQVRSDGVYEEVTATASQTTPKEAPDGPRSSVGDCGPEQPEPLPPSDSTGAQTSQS
For assay [3], the target named is FcγRI on type 1 or type 2 endothelial cells. As to the kind of experiment: cell-based or functional assay.

Take `[N-]=[N+]=[N-]` [azide, sodium azide]: the “reduction in tumor cell migration compared to assay in absence of the substance” value in assay [1] (0.001% per well) was approximately 5 fold.
As for “immune complexes comprising bovine submaxillary mucin and anti-sTn mAb (clone B72.3, IgG1)”, in assay [2], the IFN-γ secreted, macrophages + IC (ELISA) stood at 5.3 pg/mL; the IFN-γ secreted, macrophages + tumor cells + IC (ELISA) is 4 pg/mL; the IFN-γ secreted, macrophages + tumor cells + neutrophils + IC (ELISA) came to 4.1 pg/mL; the IL-1β secreted, macrophages + IC (ELISA) worked out at 2.5 pg/mL. In assay [2], the IL-1β secreted, macrophages + tumor cells + neutrophils + IC (ELISA) was found to be 22.8 pg/mL; the IL-4 secreted, macrophages + IC (ELISA) came to 1.5 pg/mL; the IL-4 secreted, macrophages + tumor cells + IC (ELISA) was determined as 1.3 pg/mL; the IL-4 secreted, macrophages + tumor cells + neutrophils + IC (ELISA) turned out to be 0.6 pg/mL. In assay [2], the IL-6 secreted, macrophages + IC (ELISA) was determined as 104 pg/mL and the IL-6 secreted, macrophages + tumor cells + IC (ELISA) turned out to be 400 pg/mL. Moreover, the VEGF production by type 1 endothelial cells (ELISA, 2 h) in assay [3] is more than 5 pg/mL.
Consider “methoxysuccinyl-alanyl-alanyl-prolyl-valine-chloromethylketone [MAAPVC]”, for which, in assay [1] (0.1 μg/well), the “reduction in tumor cell migration compared to assay in absence of the substance” value is on record as approximately 5 fold.
